Consider one protein from PMC11190351 (Plant Direct, 2024).

A word on the stoichiometry N: it is a count of units in the complex or per binding partner.

This data set concerns the molecule itself. Nature of the data set: SEC. In general terms: Size exclusion chromatography separates by hydrodynamic size, large species first.

B1: Chlamydomonas reinhardtii alpha amylase 2 (AMA2), full-length recombinant enzyme (enzyme, UniProt A0A2K3DGK5 1-706, looked up)
chain: MDRSLLSRTSPRMQLGRPQQLPPPTVPLAQVPRLQRRCVVGSRVCQPVVAVRPGRASAGRGGRLVVSSVDMSNSPLSSMDAGEGLDIMFDNNSDAECTVVTVEGKDKAHLLMSLTGGFSSAGLTVISASITSDDGRVLDVFRVQTADGKKVPEEQFPSVREHILSVTATSSRSSMPAIYGIVAAAEVERLKPLRSQSTQNDVDALELAAAEMTQAVAELVATERDIIRMRASNADARTLQTKEANRTEAAAGLERKMAAMQAVLAARRNLATEPEKPKSPTEKLLETLKPPTPMRAAAGAGSGSGSEILLQAFNWESHRQKLYKQLMGRVKDISDAGFTGVWMPPPSDSVSPQGYLPRDLYSLDSAYGSEAELRELIAAFHQNNIKVIADIVVNHRCANSQGSDGKWNKFGGRLAWDASAICSNNPSFGGRGNPKQGDDYAAAPNIDHSQERIRNDIVQWMKYLRNSIGFDGWRFDFVRGYLGSYCKQYIDETVPAMAFGEYWDSCEYTDGVLNYNQDAHRQRTVNWCDSTGGTSAAFDFTTKGILQEAVGRREYWRLVDSQGRPPGVMGMWPSRAITFIDNHDTGSTLNHWPFPSRNLPEGYAYILTHPGTPCVFYDHFYQEENNLRKIILDLLKVRRRNGLNARSKVVMKKSAADVYAAMIDDKVAVKLGPGDWSPNQSGIKVNGKELKVAASGFQFAVWEGQH
In the case of B1, the “stoichiometry N” value turned out to be 2.
